From publication PMC13137973, “Tumor Necrosis Factor Receptor 2 Inhibits HIV-1 Infection by Blocking the Binding of gp120 to CD4” (International Journal of Biological Sciences, 2026) come the findings set out here.

This test concerns the target T1, human immunodeficiency virus 1 (HIV-1) (group M, subtype B, Isolate MN) gp120 Protein (HIV-1 (group M, subtype B, isolate MN), UniProt P05877 30-513).
T1 construct: also called gp120 core; His-tagged gp120; source: bought: Sino Biological (Catalog No: 40405-V08H)
Put plainly: ELISA; plates coated with human TNFR1 or TNFR2 (5 µg/mL, carbonate buffer pH 9.6, overnight 4 °C), blocked with 3% BSA; serial dilutions of gp120, 2 h room temperature; wash 20 mM Tris-HCl, 500 mM NaCl, 0.05% Tween-20, pH 7.5; bound gp120 detected with anti-His-HRP. To be noted: both partners purified. A general note: ELISA stands for enzyme-linked immunosorbent assay.

B1: human TNFR2 / CD120b protein, extracellular domain (residues 1-257) (domain or fragment, UniProt P20333-1 23-257, looked up)
chain: LPAQVAFTPYAPEPGSTCRLREYYDQTAQMCCSKCSPGQHAKVFCTKTSDTVCDSCEDSTYTQLWNWVPECLSCGSRCSSDQVETQACTREQNRICTCRPGWYCALSKQEGCRLCAPLRKCRPGFGVARPGTETSDVVCKPCAPGTFSNTTSSTDICRPHQICNVVAIPGNASMDAVCTSTSPTRSMAPGAVHLPQPVSTRSQHTQPTPEPSTAPSTSFLLPMGPSPPAEGSTGD
notes: also called tumor necrosis factor receptor type II; immobilized TNFR2; source: bought: Sino Biological (Catalog No: 10417-H08H)
As to B1, the binding result is reported as “binds”.
